Source: patent US20200332020A1 (REGENTS OF THE UNIVERSITY OF MINNESOTA, published 2020)

Experiments:
[1] = biological target: HSPG2 (perlecan) on cells (human, UniProt P98160 22-4391); experiment: apparent KD, flow cytometry titration on tumor cells
[2] = biological target: T1, Recombinant HSPG2 domain 1 (first 247 amino acids of human HSPG2, C-terminal His tag) (human, UniProt P98160 22-247); experiment: biolayer interferometry (BLItz), HSPG2 domain 1 on Ni-NTA biosensor
T1 construct: range 1-247; The stated range counts from residue 1, so it includes the signal peptide; also called HSPG2D1; perlecan domain 1; not shown: C-terminal His tag from the pcDNA 3.3+ vector
Method: We used biolayer inferometry (BLItz, Fortebio) to determine antibody binding kinetics specifically with purified HSPG2 domain 1. Ni-NTA biosensors were hydrated for 10 minutes in phosphate buffered saline. Following hydration, a 30 second baseline was established, followed by a 10-minute loading of the biosensor with 10 μg/mL HSPG2 domain 1 protein. The biosensor was then placed in PBS to establish baseline for 30 seconds. A two-step antibody association—dissociation cycle of 5 minutes each was then used to determine the kinetic association (kₐ) and dissociation (kd) rate constants. The equilibrium dissociation constant (KD) was calculated as KD=kd/kₐ
An important caveat with flow cytometry-based titration curves is the potential for avidity affects contributing to the binding, resulting in an ‘apparent KD’. Biophysical techniques are most often employed to generate the true, analytically relevant ‘intrinsic KD^{’} value. We chose biolayer interferometry as a means of assessing the kinetics of antibody-antigen binding with HSPG2D1.

B1: Tw1S4_6 IgG (antibody, V domains shown)
VH: EVQLLESGGGLVQPGGSLRLSCAASGFTFSSYAMSWVRQAPGKGLEWVSAIREDGIKTYYADSVKGRFTISRDNSKNTLYLQMNSLRAEDTAVYYCAKRARRFDYWGQGTLVTVS
VL: DIQMTQSPSSLSASVGDRVTITCRASQSISSYLNWYQQKPGKAPKLLIYNASLLQSGVPSRFSGSGSGTDFTLTISSLQPEDFATYYCQQSLRSPITFGQGTKVEIKR
Kd [1]: 0.125 to 0.275 µM
Kd [2]: 1.79 µM
koff [2]: 0.0109 s⁻¹
kon [2]: 6140 M⁻¹ s⁻¹
